Substrate: CCCCCCCC/C=C\CCCCCCCC(=O)OC[C@H](COP(=O)(O)OC[C@H](N)C(=O)O)OC(=O)CCCCCCC/C=C\CCCCCCCC
Assay: colorimetric phosphate-release ATPase assay, Michaelis-Menten fit
Assay type: biochemical, Homo sapiens
Details: PS activation constant (not association constant), 5 mM ATP, DOPC:DOPS mixtures at 2.5 mg/ml total lipid, 10 mM CHAPS, 12.5 mM MgCl2, pH 7.5, 37°C

Protein | K0.5
ATP8A2-CDC50A complex (Homo sapiens) (protein, heterodimer; with Cell cycle control protein 50A) MLNGAGLDKALKMSLPRRSRIRSSVGPVRSSLGYKKAEDEMSRATSVGDQLEAPARTIYLNQPHLNKFRDNQISTAKYSVLTFLPRFLYEQIRRAANAFFLFIALLQQIPDVSPTGRYTTLVPLIIILTIAGIKEIVEDFKRHKADNAVNKKKTIVLRNGMWHTIMWKEVAVGDIVKVVNGQYLPADVVLLSSSEPQAMCYVETANLDGETNLKIRQGLSHTADMQTREVLMKLSGTIECEGPNRHLYDFTGNLNLDGKSLVALGPDQILLRGTQLRNTQWVFGIVVYTGHDTKLMQNSTKAPLKRSNVEKVTNVQILVLFGILLVMALVSSAGALYWNRSHGEKNWYIKKMDTTSDNFGYNLLTFIILYNNLIPISLLVTLEVVKYTQALFINWDTDMYYIGNDTPAMARTSNLNEELGQVKYLFSDKTGTLTCNIMNFKKCSIAGVTYGHFPELAREPSSDDFCRMPPPCSDSCDFDDPRLLKNIEDRHPTAPCIQEFLTLLAVCHTVVPEKDGDNIIYQASSPDEAALVKGAKKLGFVFTARTPFSVIIEAMGQEQTFGILNVLEFSSDRKRMSVIVRTPSGRLRLYCKGADNVIFERLSKDSKYMEETLCHLEYFATEGLRTLCVAYADLSENEYEEWLKVYQEASTILKDRAQRLEECYEIIEKNLLLLGATAIEDRLQAGVPETIATLLKAEIKIWVLTGDKQETAINIGYSCRLVSQNMALILLKEDSLDATRAAITQHCTDLGNLLGKENDVALIIDGHTLKYALSFEVRRSFLDLALSCKAVICCRVSPLQKSEIVDVVKKRVKAITLAIGDGANDVGMIQTAHVGVGISGNEGMQATNNSDYAIAQFSYLEKLLLVHGAWSYNRVTKCILYCFYKNVVLYIIELWFAFVNGFSGQILFERWCIGLYNVIFTALPPFTLGIFERSCTQESMLRFPQLYKITQNGEGFNTKVFWGHCINALVHSLILFWFPMKALEHDTVLTSGHATDYLFVGNIVYTYVVVTVCLKAGLETTAWTKFSHLAVWGSMLTWLVFFGIYSTIWPTIPIAPDMRGQATMVLSSAHFWLGLFLVPTACLIEDVAWRAAKHTCKKTLLEEVQELETKSRVLGKAVLRDSNGKRLNERDRLIKRLGRKTPPTLFRGSSLQQGVPHGYAFSQEEHGAVSQEEVIRAYDTTKKKSRKK | 14.3 ± 4.3 µM
ATP8A2-CDC50A complex (Homo sapiens; E459Q) (protein, heterodimer; with Cell cycle control protein 50A) MLNGAGLDKALKMSLPRRSRIRSSVGPVRSSLGYKKAEDEMSRATSVGDQLEAPARTIYLNQPHLNKFRDNQISTAKYSVLTFLPRFLYEQIRRAANAFFLFIALLQQIPDVSPTGRYTTLVPLIIILTIAGIKEIVEDFKRHKADNAVNKKKTIVLRNGMWHTIMWKEVAVGDIVKVVNGQYLPADVVLLSSSEPQAMCYVETANLDGETNLKIRQGLSHTADMQTREVLMKLSGTIECEGPNRHLYDFTGNLNLDGKSLVALGPDQILLRGTQLRNTQWVFGIVVYTGHDTKLMQNSTKAPLKRSNVEKVTNVQILVLFGILLVMALVSSAGALYWNRSHGEKNWYIKKMDTTSDNFGYNLLTFIILYNNLIPISLLVTLEVVKYTQALFINWDTDMYYIGNDTPAMARTSNLNEELGQVKYLFSDKTGTLTCNIMNFKKCSIAGVTYGHFPELARQPSSDDFCRMPPPCSDSCDFDDPRLLKNIEDRHPTAPCIQEFLTLLAVCHTVVPEKDGDNIIYQASSPDEAALVKGAKKLGFVFTARTPFSVIIEAMGQEQTFGILNVLEFSSDRKRMSVIVRTPSGRLRLYCKGADNVIFERLSKDSKYMEETLCHLEYFATEGLRTLCVAYADLSENEYEEWLKVYQEASTILKDRAQRLEECYEIIEKNLLLLGATAIEDRLQAGVPETIATLLKAEIKIWVLTGDKQETAINIGYSCRLVSQNMALILLKEDSLDATRAAITQHCTDLGNLLGKENDVALIIDGHTLKYALSFEVRRSFLDLALSCKAVICCRVSPLQKSEIVDVVKKRVKAITLAIGDGANDVGMIQTAHVGVGISGNEGMQATNNSDYAIAQFSYLEKLLLVHGAWSYNRVTKCILYCFYKNVVLYIIELWFAFVNGFSGQILFERWCIGLYNVIFTALPPFTLGIFERSCTQESMLRFPQLYKITQNGEGFNTKVFWGHCINALVHSLILFWFPMKALEHDTVLTSGHATDYLFVGNIVYTYVVVTVCLKAGLETTAWTKFSHLAVWGSMLTWLVFFGIYSTIWPTIPIAPDMRGQATMVLSSAHFWLGLFLVPTACLIEDVAWRAAKHTCKKTLLEEVQELETKSRVLGKAVLRDSNGKRLNERDRLIKRLGRKTPPTLFRGSSLQQGVPHGYAFSQEEHGAVSQEEVIRAYDTTKKKSRKK | 8.4 ± 3.1 µM
ATP8A2-CDC50A complex (Homo sapiens; E459D) (protein, heterodimer; with Cell cycle control protein 50A) MLNGAGLDKALKMSLPRRSRIRSSVGPVRSSLGYKKAEDEMSRATSVGDQLEAPARTIYLNQPHLNKFRDNQISTAKYSVLTFLPRFLYEQIRRAANAFFLFIALLQQIPDVSPTGRYTTLVPLIIILTIAGIKEIVEDFKRHKADNAVNKKKTIVLRNGMWHTIMWKEVAVGDIVKVVNGQYLPADVVLLSSSEPQAMCYVETANLDGETNLKIRQGLSHTADMQTREVLMKLSGTIECEGPNRHLYDFTGNLNLDGKSLVALGPDQILLRGTQLRNTQWVFGIVVYTGHDTKLMQNSTKAPLKRSNVEKVTNVQILVLFGILLVMALVSSAGALYWNRSHGEKNWYIKKMDTTSDNFGYNLLTFIILYNNLIPISLLVTLEVVKYTQALFINWDTDMYYIGNDTPAMARTSNLNEELGQVKYLFSDKTGTLTCNIMNFKKCSIAGVTYGHFPELARDPSSDDFCRMPPPCSDSCDFDDPRLLKNIEDRHPTAPCIQEFLTLLAVCHTVVPEKDGDNIIYQASSPDEAALVKGAKKLGFVFTARTPFSVIIEAMGQEQTFGILNVLEFSSDRKRMSVIVRTPSGRLRLYCKGADNVIFERLSKDSKYMEETLCHLEYFATEGLRTLCVAYADLSENEYEEWLKVYQEASTILKDRAQRLEECYEIIEKNLLLLGATAIEDRLQAGVPETIATLLKAEIKIWVLTGDKQETAINIGYSCRLVSQNMALILLKEDSLDATRAAITQHCTDLGNLLGKENDVALIIDGHTLKYALSFEVRRSFLDLALSCKAVICCRVSPLQKSEIVDVVKKRVKAITLAIGDGANDVGMIQTAHVGVGISGNEGMQATNNSDYAIAQFSYLEKLLLVHGAWSYNRVTKCILYCFYKNVVLYIIELWFAFVNGFSGQILFERWCIGLYNVIFTALPPFTLGIFERSCTQESMLRFPQLYKITQNGEGFNTKVFWGHCINALVHSLILFWFPMKALEHDTVLTSGHATDYLFVGNIVYTYVVVTVCLKAGLETTAWTKFSHLAVWGSMLTWLVFFGIYSTIWPTIPIAPDMRGQATMVLSSAHFWLGLFLVPTACLIEDVAWRAAKHTCKKTLLEEVQELETKSRVLGKAVLRDSNGKRLNERDRLIKRLGRKTPPTLFRGSSLQQGVPHGYAFSQEEHGAVSQEEVIRAYDTTKKKSRKK | 19.3 ± 4.2 µM

— article PMC11073571, “Functional and in silico analysis of ATP8A2 and other P4-ATPase variants associated with human genetic diseases” (Disease Models & Mechanisms, 2024)
